Target: CAX^CK31 (Ca2+/H+ antiporter of Caulobacter sp. K31), purified, lacking tags (Caulobacter sp. K31)
Assay: SEC-MALS

Substance: CAX^CK31 (Ca2+/H+ antiporter of Caulobacter sp. K31), purified, lacking tags (natural protein)
- stoichiometry N: 2

— publication PMC3571656
